Broadly, the Km is the concentration of substrate that gives half-maximal velocity. Broadly, the kcat is the number of substrate molecules converted per active site and unit of time at saturation. The kcat/Km is the turnover number divided by the Michaelis constant.

Data set [1] deals with rAmpC CMH-4 from E. cloacae ATCC 13047 (Enterobacter cloacae subsp. cloacae, UniProt A0A0H3CN55). The data set is described as follows: Michaelis-Menten kinetic analysis of substrate hydrolysis by purified rAmpC. The following applies: CMH-4 compared with E. cloacae P99 AmpC (ref 29).
The target in data set [2] is rAmpC CNE-1 from C. neteri SSMD04 (Cedecea neteri, UniProt A0A089PY88). The following applies: CNE-1 compared with CDA-1 (ref 13).
Data set [3] concerns rAmpC CMH-4 from E. cloacae 13047. In words: Assay for ESAC and class B metallo-β-lactamase activity (nitrocefin hydrolysis with clavulanic acid or EDTA). The following applies: 2 mM test substance, 500 nM rAmpC, 500 µM nitrocefin, 30 °C, 8 min. In kind it is biochemical. The procedure: (§1) The reactions carried out in the absence and presence of EDTA with purified rAmpC enzymes using the reporter substrate, nitrocefin, were performed. […] The class C β-lactamases are functionally cephalosporinases that are generally resistant to clavulanic acid. However, some AmpCs which show resistance to oxyimino-cephalosporins and are commonly sensitive to clavulanic acid were termed extended-spectrum AmpC β-lactamases (ESAC), similar to the extended-spectrum β-lactamases (ESBLs) of the A class according to the Bush-Jacoby classification. […] To test this aspect of ESAC activity, reactions were performed in the presence of clavulanic acid.
(§2) For each panel, all reactions contained 500 nM rAMpC protein and 500 µM nitrocefin.
(§3) The reactions testing ESBL activity (related to the observation that most ESBL enzymes are inhibited by clavulanic acid) were performed in the absence or presence of 2 mM clavulanic acid. Class B β-Lactamase activity was tested by reactions performed in the absence or presence of 2 mM ethylenediaminetetraacetic acid (EDTA).

The test system of data set [4] is rAmpC CNE-1 from C. neteri SSMD04. The description is as above. It counts as biochemical. Conditions: 2 mM test substance, 500 nM rAmpC, 500 µM nitrocefin, 30 °C, 8 min. The procedure:
as §1, §2, §3

Data set [5] concerns rAmpC CNE-2 from C. neteri 33855. Described as above. In kind it is biochemical. Conditions: 2 mM test substance, 500 nM rAmpC, 500 µM nitrocefin, 30 °C, 8 min. The procedure:
as §1, §2, §3

For data set [6], the system named is CC1(C)S[C@@H]2[C@H](NC(=O)[C@H](N)c3ccccc3)C(=O)N2[C@H]1C(=O)O. The data set is described as follows: purified protein, by the assay type. Conditions: 37.0 °C.
Data set [7] relates to CC1=C(C(=O)O)N2C(=O)[C@@H](NC(=O)[C@H](N)c3ccccc3)[C@H]2SC1. The data set is described as follows: purified protein, by the assay type. Conditions: 37.0 °C.
The subject of data set [8] is CO/N=C(\C(=O)N[C@@H]1C(=O)N2C(C(=O)O)=C(COC(N)=O)CS[C@H]12)c1ccco1. In words: purified protein, by the assay type. The following applies: 37.0 °C.
The subject of data set [9] is CO[C@@]1(NC(=O)Cc2cccs2)C(=O)N2C(C(=O)O)=C(COC(N)=O)CS[C@@H]21. The data set is described as follows: purified protein, by the assay type. Conditions: 37.0 °C.
Data set [10] has as its system C[C@@H](O)[C@H]1C(=O)N2C(C(=O)O)=C(SCCN=CN)C[C@H]12. In words: purified protein, by the assay type. The following applies: 37.0 °C.
For data set [11], the system named is O=C(Cc1cccs1)N[C@@H]1C(=O)N2C(C(=O)O)=C(/C=C/c3ccc([N+](=O)[O-])cc3[N+](=O)[O-])CS[C@H]12. In words: purified protein, by the assay type. The following applies: pH 7.0; 30.0 °C.
The subject of data set [12] is CDA-1 (AmpC from C. davisae). Conditions: cited from earlier work.
The subject of data set [13] is Cc1nnc(SCC2=C(C(=O)O)N3C(=O)[C@@H](NC(=O)Cn4cnnn4)[C@H]3SC2)s1. The data set is described as follows: purified protein, by the assay type. Conditions: 37.0 °C.

In the case of `O=C(Cc1cccs1)N[C@@H]1C(=O)N2C(C(=O)O)=C(/C=C/c3ccc([N+](=O)[O-])cc3[N+](=O)[O-])CS[C@H]12` [nitrocefin], the “kcat, fold less than for AmpC from E. cloacae P99” value in data set [1] is ~ 100 fold.

For the compound `CO[C@@]1(NC(=O)Cc2cccs2)C(=O)N2C(C(=O)O)=C(COC(N)=O)CS[C@@H]21` [Cefoxitin, cefoxitin], the “Km, fold higher than for CDA-1 from C. davisae” value in [2] came out at 100 fold.

As for `O=C(O)[C@H]1/C(=C/CO)O[C@@H]2CC(=O)N21` [clavulanic acid], the “Inhibition of nitrocefin hydrolysis” value is listed as “completely inhibited” in [3], “not inhibited” in data set [4] and “not inhibited” in [5].

As to `O=C(O)CN(CCN(CC(=O)O)CC(=O)O)CC(=O)O` [EDTA, ethylenediaminetetraacetic acid], the “Inhibition of nitrocefin hydrolysis” value in data set [3] is given as “hydrolyzed the substrate, nitrocefin, in the presence of EDTA”; in [4], “hydrolyzed the substrate, nitrocefin, in the presence of EDTA”; in data set [5], “hydrolyzed the substrate, nitrocefin, in the presence of EDTA”.

For the compound “(Enterobacter cloacae subsp. cloacae ATCC 13047)”, the Km is reported as 7 µM in data set [6]; 6.8 µM in data set [7]; 0.35 µM in data set [8]; 12 µM in [9]; 0.85 µM in data set [10]; 11 ± 2 µM in [11].

With `C[C@@H](O)[C@H]1C(=O)N2C(C(=O)O)=C(SCCN=CN)C[C@H]12` [Imipenem, imipenem], the Km in [12] was approximately 2000 nM.

Turning to (Cedecea neteri), the Km in [6] was found to be 72 µM; in data set [7], 2 µM; in data set [8] it was 5 µM; in data set [9], 48 µM; in data set [10], 5 µM; in data set [13], 67 µM. The Km in [11] amounted to 46 ± 5 µM. Besides, the catalytic constant (kcat) in data set [11] came out at 1.93 ± 0.16 s⁻¹. Further, the catalytic efficiency (kcat/Km) in [11] amounted to 41900 M⁻¹ s⁻¹.

Source of the values: publication PMC9952435, “Characterization of Two Novel AmpC Beta-Lactamases from the Emerging Opportunistic Pathogen, Cedecea neteri” (Antibiotics, 2023).
